Assay results: paper PMC4407889, “Improved Catenated Structures of Bovine Peroxiredoxin III F190L Reveal Details of Ring-Ring Interactions and a Novel Conformational State” (PLoS ONE, 2015)

Biological target: the molecule itself
Assay: crystal structure; reduced form, crystallized in the presence of DTT; sitting-drop vapor diffusion, 16°C, 34% (v/v) 2-methyl-1,3-propanediol, 0.1 M phosphate-citrate pH 4.2; protein 15 mg/ml; space group P2(1)2(1)2; 2.2 Å

B1: bovine peroxiredoxin III F190L (enzyme, UniProt P35705 63-257, looked up)
chain: APAVTQHAPYFKGTAVVSGEFKEISLDDFKGKYLVLFFYPLDFTFVCPTEIIAFSDKASEFHDVNCEVVAVSVDSHFSHLAWINTPRKNGGLGHMNIALLSDLTKQISRDYGVLLEGPGLALRGLFIIDPNGVIKHLSVNDLPVGRSVEETLRLVKAFQFVEAHGEVCPANWTPESPTIKPHPTASREYLEKVNQ
notes: Mitochondrial 2-cys peroxiredoxin III (PrxIII), bovine, lacking its N-terminal 62 amino acid mitochondrial targeting signal; residue 1 is the N-terminal alanine of the mature protein; Construct in pET14b; Twelve chains form one (α2)6 dodecameric toroid, and two toroids interlock as a two-ring catenane in the crystal; In the oxidized form Cys47 of one monomer is disulfide-bonded to Cys168 of its …
With B1 the “stoichiometry N” value was 12.
